The values that follow come from patent publication US20030161809A1 (published 2003).

One may read the Kd as the equilibrium constant for the complex coming apart. The koff is the rate constant with which the complex falls apart. One may read the kon as a measure of how fast the partners come together.

The chains are these.
T1: GST-Cyn monkey-stalk fusion protein (Schistosoma japonica; cynomolgus monkey)
T1 construct: also called D6 cyno; Cyno; not shown: GST (Schistosoma japonicum, from pGEX-2TK) and its linker before the GS
T1 chain: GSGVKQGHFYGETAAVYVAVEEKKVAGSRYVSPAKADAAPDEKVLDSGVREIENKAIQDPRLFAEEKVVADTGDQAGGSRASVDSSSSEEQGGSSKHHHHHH

T2: GST-Rat-stalk fusion protein (Schistosoma japonica; rat, UniProt P15083 535-643)
T2 construct: domain: stalk; About 39.3 kD, no 6xHis tag; also called [GST]-[rat domain 6] fusion protein; D6 rat; not shown: glutathione-S-transferase from Schistosoma japonica, from vector pGEX-2TK
T2 sequence (looked up): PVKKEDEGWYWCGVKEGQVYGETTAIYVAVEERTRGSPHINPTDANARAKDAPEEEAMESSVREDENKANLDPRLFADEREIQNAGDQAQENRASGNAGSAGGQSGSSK

B1: sFv5AF-Cys (starting material, mixture of monomer and dimer) (scFv)
scFv: DYKAKQVQLVQSGGGVVQPGRSLRLSCAASGFTFSSYAMHWVRQAPGKGLEWVSAISGSGGSTYYADSVKGRFTISRDNAKNSLYLQMNSLRAEDTAVYYCARDTRGYFDLWGRGTLVTVSSGGGGSGGGGSGGGGSSELTQDPAMSVALGQTVRITCQGDSLRKYHASWYQQRPRQAPRLVVYGKNERPSGIPERFSGSTSGDTASLTISGLQAEDEADYYCHSRDSNADLVVFGGGTKVTVLGGGGGSCAAAEQKLISEEDLNGAAHHHHHH
notes: also called s5AF-Cys
B2: purified dimer sFv5AF-Cys (scFv)
scFv: B1 scFv
notes: also called 5Afcys Dimer; sFv5AF-Cys dimer
B3: purified monomer sFv5AF-Cys (scFv)
scFv: B1 scFv
notes: also called 5Afcys Monomer; sFv5AF-Cys monomer
B4: single chain antibody sFv5A (scFv)
scFv: QVQLQQSGGGVVQPGRSLRLSCAASGFTFSSYAMHWVRQAPGKGLEWVSAISGSGGSTYYADSVKGRFTISRDNAKNSLYLQMNSLRAEDTAVYYCARDTRGYFDLWGRGTLVTVSSGGGGSGGGGSGGGGSSELTQDPAMSVALGQTVRITCQGDSLRKYHASWYQQRPRQAPRLVVYGKNERPSGIPERFSGSTSGDTASLTISGLQAEDEADYYCHSRDSNADLVVFGGGTKVTVLGAAAEQKLISEEDLNGAAHHHHHH
B5: [monomer sFv5AF-Cys]-SPDP-[15 kD protein] conjugate without c-myc tag (Az018b) (other)
scFv: DYKAKQVQLVQSGGGVVQPGRSLRLSCAASGFTFSSYAMHWVRQAPGKGLEWVSAISGSGGSTYYADSVKGRFTISRDNAKNSLYLQMNSLRAEDTAVYYCARDTRGYFDLWGRGTLVTVSSGGGGSGGGGSGGGGSSELTQDPAMSVALGQTVRITCQGDSLRKYHASWYQQRPRQAPRLVVYGKNERPSGIPERFSGSTSGDTASLTISGLQAEDEADYYCHSRDSNADLVVFGGGTKVTVLGGGGGSC
notes: also called Az0018b; not shown: the 15 kD protein (never identified); the exact point where the c-myc/His tail was lost
B6: [monomer sFv5AF-Cys]-SPDP-[15 kD protein] conjugate with c-myc tag (Az018a) (other)
scFv: B1 scFv
B7: [dimer sFv5AF-Cys]-SPDP-[15 kD protein] conjugate (Az019) (other)
scFv 1: B1 scFv
scFv 2: B1 scFv
notes: also called AzO19; Az0019
B8: single chain antibody sFv5AF (scFv)
scFv: DYKAKQVQLVQSGGGVVQPGRSLRLSCAASGFTFSSYAMHWVRQAPGKGLEWVSAISGSGGSTYYADSVKGRFTISRDNAKNSLYLQMNSLRAEDTAVYYCARDTRGYFDLWGRGTLVTVSSGGGGSGGGGSGGGGSSELTQDPAMSVALGQTVRITCQGDSLRKYHASWYQQRPRQAPRLVVYGKNERPSGIPERFSGSTSGDTASLTISGLQAEDEADYYCHSRDSNADLVVFGGGTKVTVLGAAAEQKLISEEDLNGAAHHHHHH

T3 sequence (P01833 550-638, tags left off): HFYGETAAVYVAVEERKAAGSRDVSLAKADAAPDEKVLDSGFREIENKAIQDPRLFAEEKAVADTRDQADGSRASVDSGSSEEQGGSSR

One test addresses T3, GST-Human-stalk fusion protein (Schistosoma japonica; human, UniProt P01833 550-638).
T3 construct: domain: stalk; About 37.8 kD; also called D6 human; human pIgR Domain 6 GST (D6-GST) fusion protein; not shown: glutathione-S-transferase from Schistosoma japonica, from vector pGEX-2TK
Nature of the test: SPR (Biacore), D6-GST captured on anti-GST antibody, 1:1 Langmuir global fit. On the technique in general: In SPR one partner is held on a chip, and binding of the other changes the refractive index at the surface.
Molecule B1 returned a Ka of 6.71e+08 M⁻¹, a Kd of 1.49 nM, a koff of 0.00145 s⁻¹ and an on-rate constant (kon) of 976000 M⁻¹ s⁻¹.

On to B2, for which the Ka is 5.02e+08 M⁻¹; the affinity, expressed as Kd, was 1.99 nM; the koff is 0.00217 s⁻¹; the kon was found to be 1.09e+06 M⁻¹ s⁻¹.

Take B3: the Ka was 1.77e+08 M⁻¹, the Kd stood at 5.64 nM, the koff came to 0.00241 s⁻¹ and the kon was 428000 M⁻¹ s⁻¹.

The next test concerns the target T1, GST-Cyn monkey-stalk fusion protein. The description is as above.
Molecule B1 had a Ka of 7.7e+08 M⁻¹, a dissociation constant (Kd) of 1.3 nM, an off-rate (koff) of 0.00137 s⁻¹ and a kon of 1.06e+06 M⁻¹ s⁻¹.

As for B2, the Ka was determined as 4.61e+08 M⁻¹, the Kd was 2.17 nM, the dissociation rate constant (koff) stood at 0.00244 s⁻¹ and the kon amounted to 1.12e+06 M⁻¹ s⁻¹.

Take B3: the Ka came to 1.73e+08 M⁻¹, the Kd turned out to be 5.77 nM, the koff worked out at 0.00256 s⁻¹ and the kon is 443000 M⁻¹ s⁻¹.

The next test has as its target T2, GST-Rat-stalk fusion protein. Described as above.
The molecule B1 displayed a Ka of 4.36e+08 M⁻¹, a Kd of 2.3 nM, a koff of 0.00282 s⁻¹ and a kon of 1.23e+06 M⁻¹ s⁻¹.

As for B2, the Ka turned out to be 5.01e+08 M⁻¹, the Kd is 2 nM, the koff is 0.00341 s⁻¹ and the kon was found to be 1.71e+06 M⁻¹ s⁻¹.

Molecule B3 showed a Ka of 1.77e+08 M⁻¹, a Kd of 5.63 nM, a koff of 0.00303 s⁻¹ and a kon of 538000 M⁻¹ s⁻¹.

The target of the next test is T3, GST-Human-stalk fusion protein. Kind of test: SPR (Biacore), D6-GST captured on anti-GST antibody, global fit.
Regarding B4, the Ka stood at 2.16e+07 M⁻¹; the affinity, expressed as Kd, was 46.3 nM; the koff was 0.00337 s⁻¹; the kon worked out at 72900 M⁻¹ s⁻¹.

Molecule B5 came in with a Ka of 9.3e+06 M⁻¹, a Kd of 107 nM, a koff of 0.00465 s⁻¹ and a kon of 43200 M⁻¹ s⁻¹.

The molecule B6 yielded a Ka of 9.62e+06 M⁻¹, a Kd of 104 nM, a koff of 0.00449 s⁻¹ and a kon of 43200 M⁻¹ s⁻¹.

Molecule B7 yielded a Ka of 1.39e+08 M⁻¹, a dissociation constant Kd of 7.18 nM, a koff of 0.00109 s⁻¹ and a kon of 152000 M⁻¹ s⁻¹.

A further test concerns the target T1, GST-Cyn monkey-stalk fusion protein. The test is described as above.
The molecule B4 had a Ka of 1.93e+07 M⁻¹, a dissociation constant Kd of 51.8 nM, a koff of 0.00397 s⁻¹ and an on-rate constant (kon) of 76700 M⁻¹ s⁻¹.

B5 returned a Ka of 9.5e+06 M⁻¹, a Kd of 105 nM, a koff of 0.00557 s⁻¹ and a kon of 52900 M⁻¹ s⁻¹.

For B6, the Ka amounted to 9.69e+06 M⁻¹, the Kd was found to be 103 nM, the koff is 0.00535 s⁻¹ and the kon was 51800 M⁻¹ s⁻¹.

In turn, B7 gave a Ka of 1.52e+08 M⁻¹, an equilibrium dissociation constant (Kd) of 6.57 nM, a koff of 0.00108 s⁻¹ and a kon of 164000 M⁻¹ s⁻¹.

In the next test the target is T2, GST-Rat-stalk fusion protein. The test is described as above.
B4 displayed a Ka of 2.95e+07 M⁻¹, a Kd of 33.9 nM, a koff of 0.00262 s⁻¹ and an association rate constant (kon) of 77300 M⁻¹ s⁻¹.

B5 registered a Ka of 1.28e+07 M⁻¹, a Kd of 77.9 nM, a koff of 0.00385 s⁻¹ and a kon of 49400 M⁻¹ s⁻¹.

Molecule B6 registered a Ka of 1.24e+07 M⁻¹, a Kd of 80.6 nM, a koff of 0.0038 s⁻¹ and an association rate constant (kon) of 47100 M⁻¹ s⁻¹.

Molecule B7 registered a Ka of 1.06e+08 M⁻¹, a Kd of 9.39 nM, a dissociation rate constant (koff) of 0.00196 s⁻¹ and a kon of 209000 M⁻¹ s⁻¹.

For the next test, the target named is pIgR Domain 6 GST (D6-GST) fusion protein, species not named. Kind of test: SPR (Biacore), 1:1 Langmuir model; ligand not given.
B4 gave a Ka of 6.31e+06 M⁻¹, a Kd of 158 nM, a koff of 0.00464 s⁻¹ and a kon of 29300 M⁻¹ s⁻¹.

B8 had a Ka of 4.47e+06 M⁻¹, a Kd of 224 nM, an off-rate constant (koff) of 0.00464 s⁻¹ and a kon of 27100 M⁻¹ s⁻¹.

Turning to B1, the Ka is 9.84e+06 M⁻¹, the Kd stood at 102 nM, the koff turned out to be 0.00464 s⁻¹ and the kon is 37600 M⁻¹ s⁻¹.

The next test addresses T3, GST-Human-stalk fusion protein. Nature of the test: SPR (Biacore), D6-GST captured on anti-GST antibody.
For the molecule B2, the “fold difference in affinity against the purified monomer” value (from here on “fold difference in affinity”) was around 3 fold.

The target of the next test is T1, GST-Cyn monkey-stalk fusion protein. The test is described as above.
In the case of B2, the “fold difference in affinity” value is around 3 fold.

Another test has as its target T2, GST-Rat-stalk fusion protein. The test is described as above.
For the molecule B2, the “fold difference in affinity” value is around 3 fold.

The next test concerns the target pIgR expressed on transfected MDCK cells. Kind of test: cell-based or functional assay.
For B8, the percent transcytosis, pIgR expressing MDCK cells, overnight was found to be 2%.
